This data set has as its target glutathione-S-transferase (UniProt P08515 P08515:1-218). The data set is described as follows: EMSA; GST alone control. The conditions noted are these: tags: GST (pGEX-3X, Amersham-Pharmacia); label: 5'-32P; G4, antiparallel intramolecular. How it is done:
Binding reactions are performed in a final volume of 10 µl, using 10 fmol of labelled oligonucleotide and various amounts of purified Gq1* in binding buffer: 20 mM Tris-HCl pH 7.5, 1 mM EDTA, 1 mM DTT, 6% glycerol, 100 µg/ml BSA, 1 µg/ml calf thymus DNA, 50 µM ZnCl_2 and KCl to 150 mM. Binding reactions are carried out at room temperature for 1 hour. The samples are loaded on a 8% polyacrylamide (acrylamide:bisacrylamide=33:1) non-denaturing gel. The buffer in the gel and for electrophoresis is 0.5 X TB buffer (Sambrook, J., Fritsch, E. F., & Maniatis, T. (1989) in Molecular Cloning, A Laboratory Manual, Cold Spring Harbor Laboratory Press, Cold Spring Harbor.). Electrophoresis is performed at 15 V/cm, for 2 hours, at 4° C. […] The bands are quantified using Imagequant software. The fraction of DNA that is bound and free is determined after normalization by summing the total number of counts in each lane (Senear D F, Brenowitz M (1991) J Biol Chem Jul 25;266(21):13661–71). To minimise any error due to perturbation of the equilibrium under electrophoretic conditions, the fraction of free DNA is measured at various protein concentrations rather than measuring the amount of complex formed (Cann J R (1989) J Biol Chem Oct 15;264(29):17032–40; Garner M M, Revzin A (1981) Nucleic Acids Res Jul 10;9(13):3047–60). […]
(A gel shift assay detects complexes by their altered migration in electrophoresis.)

Sequence of glutathione-S-transferase (P08515 whole entry, one chain of several): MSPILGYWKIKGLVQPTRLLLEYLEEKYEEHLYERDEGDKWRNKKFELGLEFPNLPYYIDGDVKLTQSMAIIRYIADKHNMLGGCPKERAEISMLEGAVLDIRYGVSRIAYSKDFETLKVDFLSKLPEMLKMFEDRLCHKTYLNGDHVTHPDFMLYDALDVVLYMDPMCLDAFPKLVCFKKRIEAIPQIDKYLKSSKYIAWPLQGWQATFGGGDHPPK

With GGTTAGGGTTAGGGTTAGGGTTAGGGTTAG (structured_DNA) [Htelo], the binding result is on record as “no binding”.
